From patent US6987008B1, “Variant nucleoside-5′-phosphate producing enzyme” (priority 1999, dated 2006) come the findings set out here.

The test system of data set [1] is Nc1nc2c(ncn2[C@@H]2O[C@H](CO)[C@@H](O)[C@H]2O)c(=O)[nH]1. The data set can be described thus: Km for inosine and guanosine, transphosphorylation by EA-AP mutant of pENP520. The class given is biochemical, Enterobacter aerogenes IFO12010. The settings on record: other: transphosphorylation, 100 μmol/ml sodium pyrophosphate, pH 4.0, 30° C., 10 min, cell free extract, Hanes-Woolf. The source says: (§1) The mutations were introduced into the plasmid DNA by using Quick Change site-directed mutagenesis kit produced by Stratagene. Twenty kinds of oligonucleotides (Table 12) for introduction of mutation from MUT180 (SEQ ID NO: 101) to […] (SEQ ID NO: 120) were synthesized by using a DNA synthesizer (Model 394 produced by Applied Biosystem). The mutations were introduced according to the protocol of Stratagene by using pENP170 as the first template and MUT180 and MUT181 as oligonucleotides for introduction of mutation.
(§2) By using a plasmid introduced with a mutation as a new template, the same procedure was repeated to cumulatively introduce site-specific mutations. Plasmids were prepared from the transformants by the alkali lysis method, and their nucleotide sequences were determined to confirm that the target nucleotides were replaced. […]
(§3) Escherichia coli JM109/pENP180, Escherichia coli JM109/pENP320, Escherichia coli JM109/pENP340, Escherichia coli JM109/pENP410, Escherichia coli JM109/pENP510 and Escherichia coli JM109/pENP520, which were introduced with a plasmid containing each mutant acid phosphatase gene, were each inoculated to 50 ml of L medium containing 100 µg/ml of ampicillin and 1 mM of IPTG, and cultured at 37° C. for 16 hours. […] Km values for inosine and guanosine in the transphosphorylation reaction were measured by using each cell free extract. […]

In data set [2] the test system is OC[C@H]1O[C@@H](n2cnc3c(O)ncnc32)[C@H](O)[C@@H]1O. Described as above. The settings on record: other: transphosphorylation, 100 μmol/ml sodium pyrophosphate, pH 4.0, 30° C., 10 min, cell free extract, Hanes-Woolf. It is filed as biochemical, Enterobacter aerogenes IFO12010.
Description: as §1, §2, §3

Data set [3] concerns Nc1nc2c(ncn2[C@@H]2O[C@H](CO)[C@@H](O)[C@H]2O)c(=O)[nH]1. The data set can be described thus: Km for inosine and guanosine, transphosphorylation by EA-AP mutant of pENP510. The class given is biochemical, Enterobacter aerogenes IFO12010. The settings on record: other: transphosphorylation, 100 μmol/ml sodium pyrophosphate, pH 4.0, 30° C., 10 min, cell free extract, Hanes-Woolf.
Description: as §1, §2, §3

Data set [4] relates to OC[C@H]1O[C@@H](n2cnc3c(O)ncnc32)[C@H](O)[C@@H]1O. Described as above. It is filed as biochemical, Enterobacter aerogenes IFO12010. The note with it: other: transphosphorylation, 100 μmol/ml sodium pyrophosphate, pH 4.0, 30° C., 10 min, cell free extract, Hanes-Woolf.
Description: as §1, §2, §3

In data set [5] the test system is Nc1nc2c(ncn2[C@@H]2O[C@H](CO)[C@@H](O)[C@H]2O)c(=O)[nH]1. The data set can be described thus: Km for inosine and guanosine, transphosphorylation by EA-AP mutant of pENP180 (parent). The class given is biochemical, Enterobacter aerogenes IFO12010. The note with it: other: transphosphorylation, 100 μmol/ml sodium pyrophosphate, pH 4.0, 30° C., 10 min, cell free extract, Hanes-Woolf. Here is the method:
(§4) As a gene for introducing a mutation, a plasmid pENP170 that contained a mutant EA-AP gene coding for L61Q/A63Q/E64A/N67D/S69A/G72D/T133K/E134D/I151T mutant EA-AP was used. pENP170 was prepared as follows.
(§5) As described above, a mutant gene was constructed, in which the nucleotide sequence of −10 region of the deduced promoter sequence located upstream from the coding region of the deduced acid phosphatase derived from Enterobacter aerogenes IFO12010 was changed from AAAAAT to TATAAT, which was the same as lac promoter of Escherichia coli. The plasmid containing this mutant gene was designated as pENP180.
as §3, with “hours. The cells were suspended in 50 mL of 100 mM potassium phosphate buffer (pH 7.0), and disrupted by sonication at 4° C. for 20 minutes.[…]” for “hours.”

Data set [6] concerns OC[C@H]1O[C@@H](n2cnc3c(O)ncnc32)[C@H](O)[C@@H]1O. Described as above. It is filed as biochemical, Enterobacter aerogenes IFO12010. The note with it: other: transphosphorylation, 100 μmol/ml sodium pyrophosphate, pH 4.0, 30° C., 10 min, cell free extract, Hanes-Woolf. Here is the method:
as §4, §5
as §3, with “hours. The cells were suspended in 50 mL of 100 mM potassium phosphate buffer (pH 7.0), and disrupted by sonication at 4° C. for 20 minutes.[…]” for “hours.”

The subject of data set [7] is Nc1nc2c(ncn2[C@@H]2O[C@H](CO)[C@@H](O)[C@H]2O)c(=O)[nH]1. In words: Km for inosine and guanosine, transphosphorylation by EA-AP mutant of pENP320. The class given is biochemical, Enterobacter aerogenes IFO12010. The note with it: other: transphosphorylation, 100 μmol/ml sodium pyrophosphate, pH 4.0, 30° C., 10 min, cell free extract, Hanes-Woolf.
Description: as §1, §2, §3

In data set [8] the test system is OC[C@H]1O[C@@H](n2cnc3c(O)ncnc32)[C@H](O)[C@@H]1O. The description is as above. The class given is biochemical, Enterobacter aerogenes IFO12010. The settings on record: other: transphosphorylation, 100 μmol/ml sodium pyrophosphate, pH 4.0, 30° C., 10 min, cell free extract, Hanes-Woolf.
Description: as §1, §2, §3

In data set [9] the test system is Nc1nc2c(ncn2[C@@H]2O[C@H](CO)[C@@H](O)[C@H]2O)c(=O)[nH]1. The data set can be described thus: Km for inosine and guanosine, transphosphorylation by EA-AP mutant of pENP410. It is filed as biochemical, Enterobacter aerogenes IFO12010. The settings on record: other: transphosphorylation, 100 μmol/ml sodium pyrophosphate, pH 4.0, 30° C., 10 min, cell free extract, Hanes-Woolf.
Description: as §1, §2, §3

Data set [10] deals with OC[C@H]1O[C@@H](n2cnc3c(O)ncnc32)[C@H](O)[C@@H]1O. The data set is described as above. The note with it: other: transphosphorylation, 100 μmol/ml sodium pyrophosphate, pH 4.0, 30° C., 10 min, cell free extract, Hanes-Woolf. The class given is biochemical, Enterobacter aerogenes IFO12010.
Description: as §1, §2, §3

Substrate in data set [11]: OC[C@H]1O[C@@H](n2cnc3c(O)ncnc32)[C@H](O)[C@@H]1O
In words: Km for inosine, transphosphorylation by A72E/10-residue replaced mutant EB-AP. The class given is biochemical, Escherichia blattae. The settings on record: other: transphosphorylation, 100 mM sodium pyrophosphate, 10–100 mM inosine, pH 4, 30° C., 10 min, cell free extract, Hanes-Woolf. The protocol:
Then, the Km value for inosine in the transphosphorylation reaction by each 3-residue replaced mutant EB-AP was measured under the following conditions. A reaction mixture (1 ml) containing 100 mM sodium pyrophosphate, 100 mM acetate buffer (pH 4.0), 10–100 mM inosine and 100 μl of the cell free extract was incubated at pH 4 and 30° C. for 10 minutes. After 200 μl of 1 N hydrochloric acid was added to stop the reaction, the precipitates were removed by centrifugation, and the produced 5′-inosinic acid was quantified. The Km value was calculated by the Hanes-Woolf plotting.
5′-Inosinic acid was analyzed by high performance liquid chromatography (HPLC) under the following conditions. • Column: Cosmosil 5C18-AR (4.6×150 mm), produced by Nakarai Tesque • Mobile phase: 5 mM potassium phosphate buffer (pH 2.8)/methanol=95/5 • Flow rate: 1.0 ml/min • Temperature: room temperature • Detection: UV 245 nm
The S72F mutation that decreased the Km value in the highest degree and the S72E mutation that enhanced the activity in the highest degree in Example 12 were introduced into the 10-residue replaced mutant EB-AP. Since Ser72 was replaced with Ala in the 10-residue replaced mutant EB-AP, the A72F and A72E mutations were actually introduced. […] Furthermore, transphosphorylation activity and reaction rate constant were measured by the method described in Example 12. […]

Substrate in data set [12]: OC[C@H]1O[C@@H](n2cnc3c(O)ncnc32)[C@H](O)[C@@H]1O
In words: Km for inosine, transphosphorylation by A72E/L140F/10-residue replaced mutant EB-AP. The class given is biochemical, Escherichia blattae. The note with it: other: transphosphorylation, 100 mM sodium pyrophosphate, 10–100 mM inosine, pH 4, 30° C., 10 min, cell free extract, Hanes-Woolf.

Substrate in data set [13]: OC[C@H]1O[C@@H](n2cnc3c(O)ncnc32)[C@H](O)[C@@H]1O
The data set can be described thus: Km for inosine, transphosphorylation by A72E/L140K/10-residue replaced mutant EB-AP. It is filed as biochemical, Escherichia blattae. The settings on record: other: transphosphorylation, 100 mM sodium pyrophosphate, 10–100 mM inosine, pH 4, 30° C., 10 min, cell free extract, Hanes-Woolf.

As for “Enterobacter aerogenes IFO12010 acid phosphatase (EA-AP) mutant encoded by pENP520, L61Q/A63Q/E64A/N67D/S69A/A70K/G72D/T133K/E134D/T149G/I151S (parent SEQ ID NO: 10) (Klebsiella aerogenes KCTC 2190; A83Q/A90K/E154D/E84A/G92D/I171S/L81Q/N87D/S89A/T153K/T169G)”, the Michaelis constant (Km) in data set [1] was found to be 4.4 mM; in data set [2], 46 mM.

For “Enterobacter aerogenes IFO12010 acid phosphatase (EA-AP) mutant encoded by pENP510, L61Q/A63Q/E64A/N67D/S69A/A70E/G72D/T133K/E134D/T149G/I151S (parent SEQ ID NO: 10) (Klebsiella aerogenes KCTC 2190; A83Q/A90E/E154D/E84A/G92D/I171S/L81Q/N87D/S89A/T153K/T169G)”, the Km in data set [3] amounted to 4.0 mM; in data set [4] it was 17 mM.

As for “Enterobacter aerogenes IFO12010 acid phosphatase (EA-AP) mutant encoded by pENP180, L61Q/A63Q/E64A/N67D/S69A/G72D/T133K/E134D/I151T, SEQ ID NO: 10 (Klebsiella aerogenes KCTC 2190; A83Q/E154D/E84A/G92D/I171T/L81Q/N87D/S89A/T153K)”, the Km in data set [5] and in data set [6] was 40 mM in each case.

On to “Enterobacter aerogenes IFO12010 acid phosphatase (EA-AP) mutant encoded by pENP320, L61Q/A63Q/E64A/N67D/S69A/A70V/G72D/E102L/T133K/E134D/T149S/I151S (parent SEQ ID NO: 10) (Klebsiella aerogenes KCTC 2190; A83Q/A90V/E122L/E154D/E84A/G92D/I171S/L81Q/N87D/S89A/T153K/T169S)”, for which the Km in data set [7] was determined as 4.6 mM; in data set [8], 19 mM.

On to “Enterobacter aerogenes IFO12010 acid phosphatase (EA-AP) mutant encoded by pENP410, L61Q/A63Q/E64A/N67D/S69A/A70V/G72D/T133K/E134D/T149A/I151S (parent SEQ ID NO: 10) (Klebsiella aerogenes KCTC 2190; A83Q/A90V/E154D/E84A/G92D/I171S/L81Q/N87D/S89A/T153K/T169A)”, for which the Km was 4.9 mM in [9] and 18 mM in [10].

B1: Escherichia blattae acid phosphatase (EB-AP, SEQ ID NO: 2 / 124) mutant A72E/10-residue replaced (L63Q/A65Q/E66A/N69D/S71A/S72A/G74D/T135K/E136D/I153T with … (protein)
chain: LVATGNDTTTKPDLYYLKNSEAINSLALLPPPPAVGSIAFLNDQAMYEQGRLLRNTERGKQAQADADLAEGDVANAFSGAFGSPITEKDAPALHKLLTNMIEDAGDLATRSAKDHYMRIRPFAFYGVSTCNTKDQDKLSKNGSYPSGHTSTGWATALVLAEINPQRQNEILKRGYELGQSRVICGYHWQSDVDAARVVGSAVVATLHTNPAFQQQLQKAKAEFAQHQKK
Regarding B1, the Michaelis-Menten constant (Km) in data set [11] stood at 15 mM.

B2: Escherichia blattae acid phosphatase (EB-AP, SEQ ID NO: 2 / 124) mutant A72E/L140F/10-residue replaced (L63Q/A65Q/E66A/N69D/S71A/S72A/G74D/T135K/E136D/I153T … (protein)
chain: LVATGNDTTTKPDLYYLKNSEAINSLALLPPPPAVGSIAFLNDQAMYEQGRLLRNTERGKQAQADADLAEGDVANAFSGAFGSPITEKDAPALHKLLTNMIEDAGDLATRSAKDHYMRIRPFAFYGVSTCNTKDQDKFSKNGSYPSGHTSTGWATALVLAEINPQRQNEILKRGYELGQSRVICGYHWQSDVDAARVVGSAVVATLHTNPAFQQQLQKAKAEFAQHQKK
For the molecule B2, the Km in data set [12] was found to be 9 mM.

B3: Escherichia blattae acid phosphatase (EB-AP, SEQ ID NO: 2 / 124) mutant A72E/L140K/10-residue replaced (L63Q/A65Q/E66A/N69D/S71A/S72A/G74D/T135K/E136D/I153T … (protein)
chain: LVATGNDTTTKPDLYYLKNSEAINSLALLPPPPAVGSIAFLNDQAMYEQGRLLRNTERGKQAQADADLAEGDVANAFSGAFGSPITEKDAPALHKLLTNMIEDAGDLATRSAKDHYMRIRPFAFYGVSTCNTKDQDKKSKNGSYPSGHTSTGWATALVLAEINPQRQNEILKRGYELGQSRVICGYHWQSDVDAARVVGSAVVATLHTNPAFQQQLQKAKAEFAQHQKK
With B3, the Michaelis constant (Km) in data set [13] stood at 78 mM.

One may read the Km as the substrate concentration at which the rate is half of its maximum.
